Data reported in patent US20160075795A1 (Hoffmann-La Roche, published 2016).
Substitutions are numbered along the chain they refer to.

Key:
[1] = target: T1, membrane-bound human carcinoembryonic antigen (CEA) (human, UniProt P06731 35-685, GPI anchor at the C-terminus of the mature chain; heavily N-glycosylated. Neither can be carried in the letters.); assay: flow cytometry on MKN45 target cells, antibodies as IgG [top panel]
T1 construct: Target of the flow cytometry experiments; also called CEACAM-5; CD66e
T1 sequence: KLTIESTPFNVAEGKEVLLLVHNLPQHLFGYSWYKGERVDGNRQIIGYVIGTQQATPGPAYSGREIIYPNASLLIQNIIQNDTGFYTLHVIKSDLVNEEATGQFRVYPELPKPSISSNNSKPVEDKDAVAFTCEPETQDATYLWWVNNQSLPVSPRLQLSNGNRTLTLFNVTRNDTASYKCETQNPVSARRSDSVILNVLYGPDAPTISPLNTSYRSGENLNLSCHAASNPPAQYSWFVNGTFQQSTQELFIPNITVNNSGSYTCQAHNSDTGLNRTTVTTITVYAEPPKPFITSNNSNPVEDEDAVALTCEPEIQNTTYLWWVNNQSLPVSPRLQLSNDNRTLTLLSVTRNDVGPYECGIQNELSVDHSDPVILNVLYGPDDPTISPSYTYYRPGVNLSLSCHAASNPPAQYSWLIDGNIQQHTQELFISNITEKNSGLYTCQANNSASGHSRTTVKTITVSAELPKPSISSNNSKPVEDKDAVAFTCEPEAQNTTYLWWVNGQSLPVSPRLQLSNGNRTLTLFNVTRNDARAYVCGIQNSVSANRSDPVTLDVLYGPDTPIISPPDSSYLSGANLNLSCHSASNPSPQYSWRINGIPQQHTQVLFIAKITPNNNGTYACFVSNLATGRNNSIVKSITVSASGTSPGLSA

[2] = target: T1, membrane-bound human carcinoembryonic …; assay: flow cytometry on CEA-positive MKN45 target cells, antibodies as IgG [bottom panel]
huNABA-avi-his [3] = target: T2, huNABA-avi-his (human, biotinylated in vivo at the avi tag); assay: SPR (Biacore); antigen not given, taken as huNABA-avi-his
T2 construct: immobilized on the Biacore chip; also called NABA-avi-his reagent; N-A1-B3-A2
T2 chain: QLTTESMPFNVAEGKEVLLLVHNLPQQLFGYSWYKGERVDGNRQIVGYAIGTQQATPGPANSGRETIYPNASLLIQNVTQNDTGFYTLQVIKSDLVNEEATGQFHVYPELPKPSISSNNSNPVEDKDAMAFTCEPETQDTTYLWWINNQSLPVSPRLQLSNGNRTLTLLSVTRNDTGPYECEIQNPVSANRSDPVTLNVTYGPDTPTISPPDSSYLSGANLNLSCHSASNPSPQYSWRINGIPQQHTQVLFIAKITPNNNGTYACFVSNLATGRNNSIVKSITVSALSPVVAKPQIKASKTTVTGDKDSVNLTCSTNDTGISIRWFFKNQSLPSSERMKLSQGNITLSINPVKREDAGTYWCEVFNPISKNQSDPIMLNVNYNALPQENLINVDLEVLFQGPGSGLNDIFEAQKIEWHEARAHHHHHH

huNABA-avi-his [4] = target: T2, huNABA-avi-his; assay: SPR (Biacore), Fab over immobilized NABA-avi-his; monovalent affinity column
Method: For the exact analysis of the kinetic parameters, Fabs were purified from bacterial cultures. A 500 ml culture was inoculated and induced with 1 mM IPTG at an OD600 0.9. Bacteria were incubated at 25° C. overnight and harvested by centrifugation. After the incubation of the resuspended pellet for 20 min in 25 ml PPB buffer (30 mM Tris-HCl pH8, 1 mM EDTA, 20% sucrose), bacteria were centrifuged again and the supernatant was harvested. This incubation step was repeated once with 25 ml of a 5 mM MgSO₄ solution. The supernatants of both incubation steps were pooled, filtered and loaded on a IMAC column (His gravitrap, GE Healthcare). Subsequently, the column was washed with 40 volumes. After the elution (500 mM NaCl, 500 mM Imidazole, 20 mM NaH₂PO₄ pH 7.4) the eluate was re-buffered using PD 10 columns (GE Healthcare). The kinetic parameters of the purified Fabs were then studied by SPR-analysis in a dilution row that ranged from 200 nM to 6.25 nM.
Table 11, below, summarizes the affinity constants of the various affinity matured antibody sequences. The parental antibody PR1A3 is listed as well as several light chain and heavy chain combinations of matured and non matured sequences. All values were obtained by Biacore technology by measuring the association (kₒₙ) and dissociation (koff) rate constants of the various soluble antibody constructs in Fab format on a Biacore chip with immobilized NABA-avi-his reagent (SEQ ID NO 158) as the antigen. The affinity constant is labeled with KD.

huNABA-avi-his [5] = target: T2, huNABA-avi-his; assay: SPR (Biacore), immobilized NABA-avi-his; bivalent affinity column (bivalent construct not described)

B1: CH7A / CL1A rH11 antibody (parent heavy chain with affinity matured light chain) (antibody, human IgG1, V domains shown)
VH: QVQLVQSGSELKKPGASVKVSCKASGYTFTEFGMNWVRQAPGQGLEWMGWINTKTGEATYVEEFKGRFVFSLDTSVSTAYLQISSLKAEDTAVYYCARWDFYDYVEAMDYWGQGTTVTVSS
VL: DIQMTQSPSSLSASVGDRVTITCKASQTVSANVAWYQQKPGKAPKLLIYLASYRYRGVPSRFSGSGSGTDFTLTISSLQPEDFATYYCHQYYTYPLFTFGQGTKLEIKR
notes: also called CLA1 rH11
In the case of B1, the “EC50 (read off the curve)” value [1] is reported as roughly 0.6 µg/mL.

B2: humanized PR1A3 antibody comprising heavy chain variable region construct CH7A and light chain variable region construct CL1A (antibody, V domains shown)
VH: B1 VH
VL: DIQMTQSPSSLSASVGDRVTITCKASQNVGTNVAWYQQKPGKAPKLLIYSASYRYSGVPSRFSGSGSGTDFTLTISSLQPEDFATYYCHQYYTYPLFTFGQGTKLEIK
notes: also called CH7A CL1A; CH7A, CL1A
For B2, the “EC50 (read off the curve)” value [2] was roughly 0.7 µg/mL.

B3: 1C8 Fab (hc/wt) (Fab, V domains shown)
VH: B1 VH with D103H
VL: B2 VL
notes: Fab format
B3 was tested, and the Kd (huNABA-avi-his [3]) was 586 nM, the Kd (huNABA-avi-his [4]) was 586 nM and the koff (huNABA-avi-his [4]) was 0.0076 s⁻¹. It also gave a kon (huNABA-avi-his [4]) of 12900 M⁻¹ s⁻¹, a Kd (huNABA-avi-his [5]) of 0.693 nM and a koff (huNABA-avi-his [5]) of 0.000324 s⁻¹. For the same binder, the kon (huNABA-avi-his [5]) was 467000 M⁻¹ s⁻¹.

B4: Affinity Matured CDRH-3 construct with CDR-H3 SEQ ID NO:33 (WDFAHYFQTMDY) (Fab, V domains shown)
VH: B1 VH with Y102A, D103H, V105F, E106Q, A107T
VL: B2 VL
B4 was tested, and the Kd (huNABA-avi-his [3]) was 59 nM.

B5: Affinity Matured CDRH-3 construct with CDR-H3 SEQ ID NO:34 (WDFAYYFQTMDY) (Fab, V domains shown)
VH: B1 VH with Y102A, D103Y, V105F, E106Q, A107T
VL: B2 VL
B5 was tested, and the Kd (huNABA-avi-his [3]) was 44 nM.

B6: Affinity Matured CDRH-3 construct with CDR-H3 SEQ ID NO:35 (WDFAYYLEAMDY) (Fab, V domains shown)
VH: B1 VH with Y102A, D103Y, V105L, V117I
VL: B2 VL
For B6, the Kd (huNABA-avi-his [3]) was 69 nM.

B7: H3 Full (5) 19 Fab (hc/wt) (Fab, V domains shown)
VH: B1 VH with N35S, F101A, Y102F, D103E, E106K, M108L
VL: B2 VL
With B7 the Kd (huNABA-avi-his [5]) was 0.19 nM, the koff (huNABA-avi-his [5]) was 0.000175 s⁻¹ and the kon (huNABA-avi-his [5]) was 902000 M⁻¹ s⁻¹.
